Experiment [1] addresses human EGFR (huEGFR) over-expressed on mcl-1-/- mouse embryonic fibroblasts (human, UniProt P00533 25-1210). Put plainly: cell-based or functional assay.
Experiment [2] concerns the target EGFR on EGFR positive non-small cell lung cancer cells NCI-H1650 (UniProt P00533 25-1210). Put plainly: cell-based or functional assay.

B1: AbK-AAD (antibody, human IgG1, kappa, V domains shown)
VH: EVQLQESGPGLVKPSQTLSLTCTVSGYSISRDFAWNWIRQPPGKGLEWMGYISYNGNTRYQPSLKSRITISRDTSKNQFFLKLNSVTAADTATYYCVTASRGFPWWGQGTLVTVSS
VL: DIQMTQSPSSMSVSVGDRVTITCHSSQDITYNVGWLQQKPGKSFKGLIYHGSNLDHGVPSRFSGSGSGTDYTLTISSLQPEDFATYYCVQYDDFPWTFGGGTKLEIKR
modifications: synthon AAD on reduced interchain cysteines; average DAR 2.8 per ADC
Regarding B1, in experiment [1], the “huEGFR+ mcl-1-/- MEF EC50” value was 0.0004 µM. Further, in experiment [2], the “H1650 CTG-3D EC50” value stood at 0.01 mg/L and the “H1650 GFP Flourescence EC50” value came to 0.06 mg/L.

B2: AbA-TV (antibody, human IgG1, kappa, V domains shown)
VH: EVQLQESGPGLVKPSQTLSLTCTVSGYSISRDFAWNWIRQPPGKGLEWMGYISYNGNTRYQPSLKSRITISRDTSKNQFFLKLNSVTAADTATYYCVTASRGFPYWGQGTLVTVSS
VL: DIQMTQSPSSMSVSVGDRVTITCHSSQDINSNIGWLQQKPGKSFKGLIYHGTNLDDGVPSRFSGSGSGTDYTLTISSLQPEDFATYYCVQYAQFPWTFGGGTKLEIKR
modifications: synthon TV on reduced interchain cysteines; average DAR 3.7 per ADC
Turning to B2, the “huEGFR+ mcl-1-/- MEF EC50” value in experiment [1] stood at 0.003 µM. Moreover, in experiment [2], the “H1650 CTG-3D EC50” value stood at 0.34 mg/L and the “H1650 GFP Flourescence EC50” value was found to be 0.69 mg/L.

B3: AbB-WD (antibody, human IgG1, kappa, V domains shown)
VH: EVQLQESGPGLVKPSQTLSLTCTVSGYSISNDFAWNWIRQPPGKGLEWMGYISYKGNTRYQPSLKSRITISRDTSKNQFFLKLNSVTAADTATYYCVTASRGFPWWGQGTLVTVSS
VL: DIQMTQSPSSMSVSVGDRVTITCHSSQDINSNIGWLQQKPGKSFKGLIYHGTNLDDGVPSRFSGSGSGTDYTLTISSLQPEDFATYYCVQYAQFPWTFGGGTKLEIKR
modifications: synthon WD on reduced interchain cysteines; average DAR 1.6 per ADC
B3: the “huEGFR+ mcl-1-/- MEF EC50” value in experiment [1] amounted to 0.023 µM. Besides, in experiment [2], the “H1650 CTG-3D EC50” value is 2.69 mg/L and the “H1650 GFP Flourescence EC50” value came to 1.01 mg/L.

B4: AbG-LB (antibody, human IgG1, kappa, V domains shown)
VH: EVQLQESGPGLVKPSQTLSLTCTVSGYSISNDFAWNWIRQLPGKGLEWMGYISYKGNTRYQPSLKSRITISRDTSKNQFFLKLNSVTAADTATYYCVTASRGLPYWGQGTLVTVSS
VL: DIQMTQSPSSMSVSVGDRVTITCHSSQDITYNIGWLQQKPGKSFKGLIYHGANLDDGVPSRFSGSGSGTDYTLTISSLQPEDFATYYCVQYDEFPWTFGGGTKLEIKR
modifications: synthon LB on reduced interchain cysteines; average DAR 2.5 per ADC
As for B4, the “huEGFR+ mcl-1-/- MEF EC50” value in experiment [1] was found to be 0.024 µM. Further, in experiment [2], the “H1650 CTG-3D EC50” value worked out at 1.68 mg/L and the “H1650 GFP Flourescence EC50” value was determined as 1.62 mg/L.

B5: AbG-WD (antibody, human IgG1, kappa, V domains shown)
VH: EVQLQESGPGLVKPSQTLSLTCTVSGYSISNDFAWNWIRQLPGKGLEWMGYISYKGNTRYQPSLKSRITISRDTSKNQFFLKLNSVTAADTATYYCVTASRGLPYWGQGTLVTVSS
VL: DIQMTQSPSSMSVSVGDRVTITCHSSQDITYNIGWLQQKPGKSFKGLIYHGANLDDGVPSRFSGSGSGTDYTLTISSLQPEDFATYYCVQYDEFPWTFGGGTKLEIKR
modifications: synthon WD on reduced interchain cysteines; average DAR 3.4 per ADC
Regarding B5, the “huEGFR+ mcl-1-/- MEF EC50” value in experiment [1] came out at 0.0058 µM. Besides, in experiment [2], the “H1650 CTG-3D EC50” value came out at 2.03 mg/L and the “H1650 GFP Flourescence EC50” value is 0.36 mg/L.

B6: AbA-ZZ (antibody, human IgG1, kappa, V domains shown)
VH: EVQLQESGPGLVKPSQTLSLTCTVSGYSISRDFAWNWIRQPPGKGLEWMGYISYNGNTRYQPSLKSRITISRDTSKNQFFLKLNSVTAADTATYYCVTASRGFPYWGQGTLVTVSS
VL: DIQMTQSPSSMSVSVGDRVTITCHSSQDINSNIGWLQQKPGKSFKGLIYHGTNLDDGVPSRFSGSGSGTDYTLTISSLQPEDFATYYCVQYAQFPWTFGGGTKLEIKR
modifications: synthon ZZ on reduced interchain cysteines; average DAR 1.3 per ADC
On to B6, for which the “huEGFR+ mcl-1-/- MEF EC50” value in experiment [1] was 0.186 µM. Further, in experiment [2], the “H1650 CTG-3D EC50” value is 1.86 mg/L and the “H1650 GFP Flourescence EC50” value came to 1.18 mg/L.

B7: AbA-WD (antibody, human IgG1, kappa, V domains shown)
VH: EVQLQESGPGLVKPSQTLSLTCTVSGYSISRDFAWNWIRQPPGKGLEWMGYISYNGNTRYQPSLKSRITISRDTSKNQFFLKLNSVTAADTATYYCVTASRGFPYWGQGTLVTVSS
VL: DIQMTQSPSSMSVSVGDRVTITCHSSQDINSNIGWLQQKPGKSFKGLIYHGTNLDDGVPSRFSGSGSGTDYTLTISSLQPEDFATYYCVQYAQFPWTFGGGTKLEIKR
modifications: synthon WD on reduced interchain cysteines; average DAR 1.8 per ADC
With B7, the “huEGFR+ mcl-1-/- MEF EC50” value in experiment [1] was 0.304 µM. Moreover, in experiment [2], the “H1650 CTG-3D EC50” value turned out to be 23.6 mg/L and the “H1650 GFP Flourescence EC50” value was 7.62 mg/L.

B8: AbA-LB (antibody, human IgG1, kappa, V domains shown)
VH: EVQLQESGPGLVKPSQTLSLTCTVSGYSISRDFAWNWIRQPPGKGLEWMGYISYNGNTRYQPSLKSRITISRDTSKNQFFLKLNSVTAADTATYYCVTASRGFPYWGQGTLVTVSS
VL: DIQMTQSPSSMSVSVGDRVTITCHSSQDINSNIGWLQQKPGKSFKGLIYHGTNLDDGVPSRFSGSGSGTDYTLTISSLQPEDFATYYCVQYAQFPWTFGGGTKLEIKR
modifications: synthon LB on reduced interchain cysteines; average DAR 2.4 per ADC
Turning to B8, the “huEGFR+ mcl-1-/- MEF EC50” value in experiment [1] amounted to 0.027 µM. Moreover, in experiment [2], the “H1650 CTG-3D EC50” value turned out to be 4.05 mg/L and the “H1650 GFP Flourescence EC50” value is 2.48 mg/L.

B9: AbA-ZT (antibody, human IgG1, kappa, V domains shown)
VH: EVQLQESGPGLVKPSQTLSLTCTVSGYSISRDFAWNWIRQPPGKGLEWMGYISYNGNTRYQPSLKSRITISRDTSKNQFFLKLNSVTAADTATYYCVTASRGFPYWGQGTLVTVSS
VL: DIQMTQSPSSMSVSVGDRVTITCHSSQDINSNIGWLQQKPGKSFKGLIYHGTNLDDGVPSRFSGSGSGTDYTLTISSLQPEDFATYYCVQYAQFPWTFGGGTKLEIKR
modifications: synthon ZT on reduced interchain cysteines; average DAR 2 per ADC
Turning to B9, the “huEGFR+ mcl-1-/- MEF EC50” value in experiment [1] was found to be 0.104 µM. Further, in experiment [2], the “H1650 CTG-3D EC50” value was 0.35 mg/L and the “H1650 GFP Flourescence EC50” value turned out to be 1.13 mg/L.

B10: AbB-LB (antibody, human IgG1, kappa, V domains shown)
VH: EVQLQESGPGLVKPSQTLSLTCTVSGYSISNDFAWNWIRQPPGKGLEWMGYISYKGNTRYQPSLKSRITISRDTSKNQFFLKLNSVTAADTATYYCVTASRGFPWWGQGTLVTVSS
VL: DIQMTQSPSSMSVSVGDRVTITCHSSQDINSNIGWLQQKPGKSFKGLIYHGTNLDDGVPSRFSGSGSGTDYTLTISSLQPEDFATYYCVQYAQFPWTFGGGTKLEIKR
modifications: synthon LB on reduced interchain cysteines; average DAR 1.8 per ADC
Take B10: the “huEGFR+ mcl-1-/- MEF EC50” value in experiment [1] came to 0.031 µM. In experiment [2], the “H1650 CTG-3D EC50” value was determined as 1.07 mg/L and the “H1650 GFP Flourescence EC50” value is 2.38 mg/L.

B11: AbK-LB (antibody, human IgG1, kappa, V domains shown)
VH: EVQLQESGPGLVKPSQTLSLTCTVSGYSISRDFAWNWIRQPPGKGLEWMGYISYNGNTRYQPSLKSRITISRDTSKNQFFLKLNSVTAADTATYYCVTASRGFPWWGQGTLVTVSS
VL: DIQMTQSPSSMSVSVGDRVTITCHSSQDITYNVGWLQQKPGKSFKGLIYHGSNLDHGVPSRFSGSGSGTDYTLTISSLQPEDFATYYCVQYDDFPWTFGGGTKLEIKR
modifications: synthon LB on reduced interchain cysteines; average DAR 1.8 per ADC
Take B11: the “huEGFR+ mcl-1-/- MEF EC50” value in experiment [1] worked out at 0.017 µM. In addition, in experiment [2], the “H1650 CTG-3D EC50” value stood at 1.23 mg/L and the “H1650 GFP Flourescence EC50” value was determined as 1.33 mg/L.

B12: AbK-WD (antibody, human IgG1, kappa, V domains shown)
VH: EVQLQESGPGLVKPSQTLSLTCTVSGYSISRDFAWNWIRQPPGKGLEWMGYISYNGNTRYQPSLKSRITISRDTSKNQFFLKLNSVTAADTATYYCVTASRGFPWWGQGTLVTVSS
VL: DIQMTQSPSSMSVSVGDRVTITCHSSQDITYNVGWLQQKPGKSFKGLIYHGSNLDHGVPSRFSGSGSGTDYTLTISSLQPEDFATYYCVQYDDFPWTFGGGTKLEIKR
modifications: synthon WD on reduced interchain cysteines; average DAR 1.7 per ADC
B12: the “huEGFR+ mcl-1-/- MEF EC50” value in experiment [1] came out at 0.035 µM. In experiment [2], the “H1650 CTG-3D EC50” value was 4.36 mg/L and the “H1650 GFP Flourescence EC50” value came to 2.57 mg/L.

The record behind these values is US20240199745A1, “ANTI-EGFR ANTIBODY DRUG CONJUGATES” (priority 2016, published 2024).
